Results as given in patent US20070042954A1.
Where two headings read alike, the source gives them in different places. Where no end group is shown, it is not given here.

T1: mam sCRFR2α (mouse soluble CRF receptor type 2α, amino acids 1-143 with a FLAG epitope following amino acid 143, purified from COS M6 cell media) (mouse)
T1 chain: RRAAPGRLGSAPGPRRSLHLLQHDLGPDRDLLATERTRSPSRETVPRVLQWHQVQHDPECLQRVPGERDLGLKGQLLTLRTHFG


Columns and labels:
Assay in all cases: radioreceptor assay, displacement of [125I-DTyr0]-astressin from purified sCRFR2α
[1] = target: T1, mam sCRFR2α (mouse soluble CRF receptor …)
[2] = target: mam sCRFR2α (mouse soluble CRF receptor type 2α, amino acids 1-143 with a FLAG epitope following amino acid 143, purified from COS M6 cell media) (mouse); remark: listed apart in the source
[3] = target: bact sCRFR2α (mouse soluble CRF receptor type 2α, amino acids 20-143, purified from E. coli) (mouse)

Binder	Ki [1] [nM]	Ki [2] [nM]	Ki [3] [nM]
FHLLREVLEMARAEQLAQEAHKNRKLMEII (modifications not checked) [Astressin]	6.7	–	–
VILSLDVPIGLLRILLEQARYKAARNQAATNAQILAHV (peptide, UniProt Q99ML8 73-110, looked up) [mUcn2 (urocortin 2)]	–	113	116

Second part, the binder after the results:

Ki [1] [nM]	Ki [2] [nM]	Ki [3] [nM]	Binder
–	6.6	5.8	DDPPLSIDLTFHLLRTLLELARTQSQRERAEQNRIIFDSV (peptide, UniProt P55090 81-120, looked up) [rUcn1 (urocortin 1)]
–	23	14.8	SEEPPISLDLTFHLLREVLEMARAEQLAQQAHSNRKLMEII (ends and bridges not checked) [corticotropin releasing factor (CRF)]
